In this assay the target is T1, vascular endothelial growth factor receptor-2 (VEGFR2) on HUVEC (human, UniProt P35968 20-1356).
T1 construct: whole, on cells
The assay can be described thus: flow cytometry on HUVEC (express VEGFR2), FITC anti-His detection. (In general: In flow cytometry, cells or beads pass a laser one at a time.)

T1 sequence (P35968 20-1356): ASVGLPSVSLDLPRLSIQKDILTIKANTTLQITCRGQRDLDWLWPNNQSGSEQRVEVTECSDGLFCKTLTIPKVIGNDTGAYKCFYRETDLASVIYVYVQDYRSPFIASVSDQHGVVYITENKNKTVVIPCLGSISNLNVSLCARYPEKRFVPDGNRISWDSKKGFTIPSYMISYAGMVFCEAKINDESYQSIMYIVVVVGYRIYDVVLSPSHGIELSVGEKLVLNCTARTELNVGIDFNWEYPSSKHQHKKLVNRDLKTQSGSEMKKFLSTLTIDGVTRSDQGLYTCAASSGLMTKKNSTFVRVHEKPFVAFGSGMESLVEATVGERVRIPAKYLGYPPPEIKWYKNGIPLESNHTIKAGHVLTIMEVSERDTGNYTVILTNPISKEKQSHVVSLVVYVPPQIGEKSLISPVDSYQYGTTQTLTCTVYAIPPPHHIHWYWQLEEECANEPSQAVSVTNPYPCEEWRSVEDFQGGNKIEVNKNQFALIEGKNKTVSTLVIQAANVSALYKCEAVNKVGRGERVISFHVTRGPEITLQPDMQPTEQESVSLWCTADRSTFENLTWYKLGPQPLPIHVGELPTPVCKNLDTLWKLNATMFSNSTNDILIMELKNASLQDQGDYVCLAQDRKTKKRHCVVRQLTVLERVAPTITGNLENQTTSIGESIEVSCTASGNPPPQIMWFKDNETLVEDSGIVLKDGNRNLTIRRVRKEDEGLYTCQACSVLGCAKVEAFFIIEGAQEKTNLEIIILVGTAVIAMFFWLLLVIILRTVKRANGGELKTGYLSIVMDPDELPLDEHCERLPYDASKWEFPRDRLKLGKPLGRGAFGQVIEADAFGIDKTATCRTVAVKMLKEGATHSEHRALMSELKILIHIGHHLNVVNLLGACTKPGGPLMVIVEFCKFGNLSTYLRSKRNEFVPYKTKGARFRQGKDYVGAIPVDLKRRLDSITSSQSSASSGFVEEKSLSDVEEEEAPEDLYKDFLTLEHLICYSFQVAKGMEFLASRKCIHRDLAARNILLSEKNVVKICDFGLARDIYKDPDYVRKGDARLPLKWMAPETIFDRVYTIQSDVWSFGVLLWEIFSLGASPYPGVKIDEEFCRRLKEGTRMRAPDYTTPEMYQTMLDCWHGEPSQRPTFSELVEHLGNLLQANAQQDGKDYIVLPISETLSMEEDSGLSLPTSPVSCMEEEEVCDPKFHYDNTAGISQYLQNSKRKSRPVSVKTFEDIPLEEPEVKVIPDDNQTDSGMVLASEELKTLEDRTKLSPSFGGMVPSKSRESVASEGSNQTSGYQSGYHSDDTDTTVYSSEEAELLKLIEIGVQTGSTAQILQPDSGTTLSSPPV

B1: His-tagged gremlin-1 (R&D Systems) (ligand, UniProt O60565 25-184, looked up)
chain: KKKGSQGAIPPPDKAQHNDSEQTQSPQQPGSRNRGRGQGRGTAMPGEEVLESSQEALHVTERKYLKRDWCKTQPLKQTIHEEGCNSRTIINRFCYGQCNSFYIPRHIRKEEGSFQSCSFCKPKKFTTMMVTLNCPELQPPTKKKRVTRVKQCRCISIDLD
notes: Commercial protein; not shown: His tag
For B1, the binding result is given as “no binding (tested: 100 nM)”.

(Values after US20150158938A1 (SNU R AND DB FOUNDATION, published 2015).)
